Data on 1 molecule can be found in publication PMC8260656.

This assay concerns the target EZH2 recombinant protein His-tagged (Epigentek, E24031-1) (human) (UniProt Q15910). In words: MST; labeled His-tagged EZH2 at 5 nM fixed; ERG from 0.4uM to 2.44E-05uM; incubated at room temperature for 5 min; Monolith NT.115, Premium capillaries, 30% LED excitation, high MST power.

B1: ERG recombinant protein (Origene, TP308093) (natural protein)
chain: MASTIKEALSVVSEDQSLFECAYGTPHLAKTEMTASSSSDYGQTSKMSPRVPQQDWLSQPPARVTIKMECNPSQVNGSRNSPDECSVAKGGKMVGSPDTVGMNYGSYMEEKHMPPPNMTTNERRVIVPADPTLWSTDHVRQWLEWAVKEYGLPDVNILLFQNIDGKELCKMTKDDFQRLTPSYNADILLSHLHYLRETPLPHLTSDDVDKALQNSPRLMHARNTGGAAFIFPNTSVYPEATQRITTRPDLPYEPPRRSAWTGHGHPTPQSKAAQPSPSTVPKTEDQRPQLDPYQILGPTSSRLANPGSGQIQLWQFLLELLSDSSNSSCITWEGTNGEFKMTDPDEVARRWGERKSKPNMNYDKLSRALRYYYDKNIMTKVHGKRYAYKFDFHGIAQALQPHPPESSLYKYPSDLPYMGSYHAHPQKMNFVAPHPPALPVTSSSFFAAPNPYWNSPTGGIYPNTRLPTSHMPSHLGTYY
Turning to B1, the Kd is 290 nM.

The Kd is the equilibrium constant for the complex coming apart.
